# B1: cr598 (nucleic acid)
# guide: GTTTAAGAGCTAAGCTGGAAACAGCATAGCAAGCTTAAATAAGGCTAGTCCGTTATCAACTGGAAACAGTGGCACCGAGTCGGTGCT
# modifications: listed as DNA, chemistry not fully specified
# B2: cr500 (nucleic acid)
# guide: GTTTAAGAGCTAAGCTGGAAACAGCATAGCAAGTTTAAATAAGGCTAGTCCGTTATCAACTTGAAAAAGTGGCACCGAGGCGGTGCT
# modifications: listed as DNA, chemistry not fully specified
# B3: cr976 (nucleic acid)
# guide: GTTTAAGAGCTAAGCTGGAAACAGCATAGCAAGTTTAAATAAGGGTACTCCGTTATCAACTTGAGAAAGTGGCACCGAGTCGGTGCT
# modifications: listed as DNA, chemistry not fully specified
# B4: cr282 (nucleic acid)
# guide: GTTTAAGAGCTAAGCTGGAAACAGCATAGCAAGTTTAAATAAGGCTAGTCCGTTATCAACTTGAAAAAGTGCACCCGAGTCGGGTGT
# modifications: listed as DNA, chemistry not fully specified
# B5: cr223 (nucleic acid)
# guide: GTTTAAGAGCTAAGCTGGAAACAGCATAGCAAGTTTAAATAAGGGTACTCCGTTATCAACTTGAAAAAGTGGCACCGAGTCGGTGCT
# modifications: listed as DNA, chemistry not fully specified
# B6: cr430 (nucleic acid)
# guide: GTTTAAGAGCTAAGCTGGAAACAGCATAGCAAGTTTAAATAAGACTAGTTCGTTATCAAATTGAAAAATTGGCACAGAGTCTGTGCT
# modifications: listed as DNA, chemistry not fully specified
# B7: cr456 (nucleic acid)
# guide: GTTTAAGAGCTAAGCTGGAAACAGCATAGCAAATTTAAATAAGGCAAGTCCGTTATCAACTTGAAAAAGTGGCACCGAGTCGGTGCT
# modifications: listed as DNA, chemistry not fully specified
# B8: cr338 (nucleic acid)
# guide: GTTTAAGAGCTAAGCTGGAAACAGCATAGCAAGTCTAAATAAGGCGAGTCCGTTATCAACTTGAAAAAGTGGCACCGAGTCGGTGCT
# modifications: listed as DNA, chemistry not fully specified
# B9: cr846 (nucleic acid)
# guide: GTTTAAGAGCTAAGCTGGAAACAGCATGGCAAGTTTAAATAAGGCTAGTCCGTTATCAACTTAAAAAAGTGGCACCGGGTCGGTGCT
# modifications: listed as DNA, chemistry not fully specified
# B10: cr531 (nucleic acid)
# guide: GTTTAAGAGCTAAGCTGGTAACAGCATAGCAAGTTTAAATAAGGCTAGTCCGTTATCAACTTGAAAAAGTGGCACCGAGTCGGTGCT
# modifications: listed as DNA, chemistry not fully specified
# B11: cr837 (nucleic acid)
# guide: GTTTAAGAGCTAAGCTGGAAACAGCATAGCAAGTTTAAATAAGGCTAGTCCGTTATCAACTTGAAAAAGTGGCACCCAGTCGGTGCT
# modifications: listed as DNA, chemistry not fully specified
# B12: cr927 (nucleic acid)
# guide: GTTTAAGAGCTAAGCTGGAAACAGCATAGCAAGTTTAAATAAGGCTAGTCCGTTATCAACTTGAAAAAGTGGCGCCCAGTGGGCGCT
# modifications: listed as DNA, chemistry not fully specified
# B13: cr803 (nucleic acid)
# guide: GTTTAAGAGCTAAGCTGGAAACAGCATAGCAAGTTTAAATAAGGATATTCCGTTATCAACTTGAGAAAGTGGCACCGAGTCGGTGCT
# modifications: listed as DNA, chemistry not fully specified
# B14: cr254 (nucleic acid)
# guide: GTTTAAGAGCTAAGCTGGAAACAGCATAGCAAGTTTAAATAAGGCTAGTCCGTTATCAACTTGAAAAAGTGGCACACAGTGTGTGCT
# modifications: listed as DNA, chemistry not fully specified
# B15: cr491 (nucleic acid)
# guide: GTTTAAGAGCTAAGCTGGAAACAGCATAGCAAGTTTAAATAAGGATATTCCGTTATCAAGTTGAAAAACTGGCACCGAGTCGGTGCT
# modifications: listed as DNA, chemistry not fully specified
# B16: cr134 (nucleic acid)
# guide: GTTTAAGAGCTAAGCTGGAAACAGCATAGCAAGTTTAAATAAGGCTAGTCCGTTATTAACTTGAACAAGTGGCACCGAGTCGGTGCT
# modifications: listed as DNA, chemistry not fully specified
# B17: cr342 (nucleic acid)
# guide: GTTTAAGAGCTAAGCTGGAAACAGCATAGCAAGTTTAAATAAGGCTAGTCCGTTATTAACTTGATAAAGTGGCACCGAGTCGGTGCT
# modifications: listed as DNA, chemistry not fully specified
# B18: cr300 (nucleic acid)
# guide: GTTTAAGAGCTAAGCTGGAAACAGCATAGCAAGTTTAAATAAGGATATTCCGTTATCAACTTGAAAAAGTGATACCGAGTCGGTATT
# modifications: listed as DNA, chemistry not fully specified
# B19: cr842 (nucleic acid)
# guide: GTTTAAGAGCTAAGCTGGAAACAGCATAGCAAGCTTAAATAAGGCTAGTCCGTTATCAGCTTGAAAAAGCGGCACCGAGTCGGTGCT
# modifications: listed as DNA, chemistry not fully specified
# B20: cr533 (nucleic acid)
# guide: GTTTAAGAGCTAAGCTGGAAACAGCATAGCAAGTTTAAATAAGGCTAGTCCGTTATCAGCTTGAAAAAGCGGCGGCGAGTCGCCGCT
# modifications: listed as DNA, chemistry not fully specified
# B21: cr957 (nucleic acid)
# guide: GTTTAAGAGCTAAGCTGGAAACAGCATAGCAAGTTTAAATAAGGGTACTCCGTTATCAACTTGAAAAAGTGCCACCGAGTCGGTGGT
# modifications: listed as DNA, chemistry not fully specified
# B22: cr440 (nucleic acid)
# guide: GTTTAAGAGCTAAGCTGGAAACAGCATAGCAAGTTTAAATAAGGCTAGTCCGTTATCAACTTGAAAAACTGGCACCGAGTCGGTGCT
# modifications: listed as DNA, chemistry not fully specified
# B23: cr098 (nucleic acid)
# guide: GTTTACGTGCTAAGCTGGAAACAGCATAGCAAGTTTAAATAAGGCTAGTCCGTTATCAACTTGAAAAAGTGGCACCGAGTCGGTGCT
# modifications: listed as DNA, chemistry not fully specified
# B24: cr651 (nucleic acid)
# guide: GTTTAAGAGCTAAGCTGGAAACAGCATAGCAAGTTTAAATAAGGCTAGTCCGTTTGCAACTTGAAAAAGTAGCACCGAGTCGGTGCT
# modifications: listed as DNA, chemistry not fully specified
# B25: cr940 (nucleic acid)
# guide: GTTTAAGAGCTAAGCTGGAAACAGCATAGCAAGCTTAAATAAGGCTAGTCCGTTATCAACGTGAAAACGTGGCACCGAGTCGGTGCT
# modifications: listed as DNA, chemistry not fully specified
# B26: cr827 (nucleic acid)
# guide: GTTTAAGAGCTAAGCTGGAAACAGCATAGCAAGTTTAAATAAGGATATTCCGTTATCAACTTGAAAAAGTGGCTACGAGTCGTAGCT
# modifications: listed as DNA, chemistry not fully specified
# B27: cr814 (nucleic acid)
# guide: GTTTAAGAGCTAAGCTGGAAACAGCATAGCAAGTTTAAATAAGGCTAGTCCGTTATCAACTTGAAAAAGTGGGTCCGAGTCGGACCT
# modifications: listed as DNA, chemistry not fully specified
# B28: cr989 (nucleic acid)
# guide: GTTTAAGAGCTAAGCTGGAAACAGCATAGCAAGTTTAAATAAGGCTAGTCCGTTATCAACTTGAAAAAATGGCACCGAGTCGGTGCT
# modifications: listed as DNA, chemistry not fully specified
# B29: cr330 (nucleic acid)
# guide: GTTTAAGAGCTAAGCTGGAAACAGCATAGCAAGTTTAAATAAGGATATTCCGTTATCAACTTGAAAAAGTGCCACCGAGTCGGTGGT
# modifications: listed as DNA, chemistry not fully specified
# B30: cr427 (nucleic acid)
# guide: GTTTAAGAGCTAAGCTGGAAACAGCATAGCAAGTTTAAATAAGGCTAGTCCGTTATAAACTTGAAAAAGTGGCACCGAATCGGTGCT
# modifications: listed as DNA, chemistry not fully specified
# B31: cr726 (nucleic acid)
# guide: GTTTAAGAGCTAAGCTGGAAACAGCATAGCATGTTTAAATAAGGCTAGTCCATTCTCAACTTGAAAAAGTGGCACCGAGTCGGTGCT
# modifications: listed as DNA, chemistry not fully specified
# Tested on: K562 CRISPRi cells
# Assay: Constant region variant library pooled growth screen, K562
# Assay type: cell-based, human
# Conditions: sgRNA constant region variants; activity relative to the original, un-modified constant region cr995
# Outline: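 Library of sgRNA constant-region variants, each paired with 36 targeting sequences (essential-gene and non-targeting), transduced in duplicate into K562 CRISPRi cells, puromycin-selected and grown 4–8 days at >2000× coverage. Activity per variant is its growth phenotype normalised to the same targeting sequence with unmodified constant region.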
row,Molecule,Mean relative activity
1,B1,0.5934
2,B2,0.5743
3,B3,0.5594
4,B4,1.049
5,B5,0.5667
6,B6,0.5328
7,B7,0.5821
8,B8,0.5831
9,B9,0.5528
10,B10,1.048
11,B11,0.5543
12,B12,0.5921
13,B13,0.578
14,B14,0.5503
15,B15,0.5775
16,B16,0.5692

row,Molecule,Mean relative activity
1,B17,0.5422
2,B18,0.592
3,B19,0.5544
4,B20,0.5558
5,B21,0.5576
6,B22,0.5863
7,B23,0.534
8,B24,0.5637
9,B25,0.5399
10,B26,0.5792
11,B27,1.048
12,B28,0.5623
13,B29,0.5762
14,B30,0.5383
15,B31,0.5903

# Reference: patent US20220259593A1, “CONTROL OF MAMMALIAN GENE DOSAGE USING CRISPR” (The Regents of the University of California, priority 2019, published 2022)
